This is an account of results in article PMC3030345.

For data set [1], the target named is APOBEC3G (A3G-Myc-His) (human, UniProt Q9HC16 1-384). The data set can be described thus: EMSA. (Mobility shift assays separate free from complexed probe on a gel.)
In data set [2] the target is A3G-H248A/H250A-Myc-His (human, UniProt Q9HC16 1-384, H248A;H250A). In words: EMSA.
Chain of A3G-H248A/H250A-Myc-His (Q9HC16 whole entry H248A/H250A): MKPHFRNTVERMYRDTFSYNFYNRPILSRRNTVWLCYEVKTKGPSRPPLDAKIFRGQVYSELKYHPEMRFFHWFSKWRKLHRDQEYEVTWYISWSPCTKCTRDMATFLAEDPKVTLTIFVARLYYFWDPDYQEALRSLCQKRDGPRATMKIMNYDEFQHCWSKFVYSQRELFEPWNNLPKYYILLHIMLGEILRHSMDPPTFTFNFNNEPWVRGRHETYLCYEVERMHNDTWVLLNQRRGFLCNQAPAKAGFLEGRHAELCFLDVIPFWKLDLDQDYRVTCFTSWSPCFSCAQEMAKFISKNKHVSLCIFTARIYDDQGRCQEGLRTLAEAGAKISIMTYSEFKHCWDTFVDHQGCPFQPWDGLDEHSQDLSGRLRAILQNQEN

Chain of APOBEC3G (A3G-Myc-His) (Q9HC16 whole entry): as the sequence (Q9HC16 whole entry H248A/H250A) above, with A248H, A250H counted along it

In the case of ATTATTATTATTCCAATGGATTTATTTATTTATTTATTTATTT (ssDNA) [43-nt ssDNA], the binding result in data set [1] and in data set [2] was “binds” each time.
